Measurements as given in patent US11136407 (AIMM THERAPEUTICS B V, dated 2021).
Bridges are numbered along the chain shown (N, C = ends). Primed or numbered codes have the meaning given here. Where no end group is shown, it is not given here. The star is where a group is joined. PEG2′ = PEG2 spacer group linking an N-terminal biotin to the peptide; Biotin = O=C1N[C@H]2[C@H](CS[C@H]2CCCCC(=O)*)N1

Legend:
[1] = target: T1, m4 circular peptide biotin-PEG(2)-CSPKKDVLETFTVKSSC (human, disulfide 1-17; not fully specified; printed as biotin-PEG(2)-CSPKKDVLETFTVKSSC); experiment: ELISA and SPR
T1 construct: synthetic peptide; also called circular constructed m4 peptide
T1 peptide: {Biotin-PEG2′}-CSPKKDVLETFTVKSSC

mouse CD9 on platelets = target: T2, mouse CD9 on platelets (mouse, UniProt P40240 1-226); experiment: flow cytometry on NSG mouse blood, IgG-bio SA-PeCy7
T2 construct: whole, on cells
T2 sequence (looked up): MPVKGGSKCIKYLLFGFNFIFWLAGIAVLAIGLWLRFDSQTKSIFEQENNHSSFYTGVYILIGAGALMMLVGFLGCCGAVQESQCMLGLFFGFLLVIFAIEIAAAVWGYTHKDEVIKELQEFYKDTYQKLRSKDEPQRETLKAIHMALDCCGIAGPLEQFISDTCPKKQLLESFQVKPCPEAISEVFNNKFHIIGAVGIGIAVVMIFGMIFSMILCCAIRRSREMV

surface CD81 = target: T3, surface CD81 (human, UniProt P60033); experiment: flow cytometry, AT14-12 (IgG1) against AT10-02 (IgG1) on transduced HL-60 cells
T3 construct: also called CD81 on cells
T3 sequence (tetraspanin chain, looked up): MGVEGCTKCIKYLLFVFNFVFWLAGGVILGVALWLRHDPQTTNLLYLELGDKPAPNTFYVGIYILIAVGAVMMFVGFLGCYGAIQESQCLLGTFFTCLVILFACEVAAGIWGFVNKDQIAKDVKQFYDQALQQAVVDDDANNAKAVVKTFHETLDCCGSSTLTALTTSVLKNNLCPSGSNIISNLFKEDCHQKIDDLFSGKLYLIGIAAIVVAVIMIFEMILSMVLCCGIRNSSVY

[2] = target: T4, CD9-3×FLAG-rabbitFc-Sortase-biotin (human; rabbit, biotin attached at the C-terminus by Sortase A with a GGG-biotin nucleophile; the HIS tag is removed by that reaction); experiment: SPR on CD9 coated chip, CHO production supernatant
T4 construct: also called CD9-EC2-3×FLAG-rabbitFc; recombinant CD9-EC2 protein; not shown: Fc region (CH2-CH3) of a rabbit IgG1 protein, amino acids 108-322, UniProt P01870
T4 chain (part 1 of 2): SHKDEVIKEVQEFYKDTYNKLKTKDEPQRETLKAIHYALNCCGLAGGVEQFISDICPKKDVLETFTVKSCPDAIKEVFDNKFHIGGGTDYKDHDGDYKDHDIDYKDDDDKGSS
T4 chain (part 2 of 2): GGGSLPETGGHHHHHH

human CD9 = target: T5, human CD9 (human, UniProt P21926 2-228); experiment: flow cytometry on melanoma (MelWBO) cells, CHO supernatant
T5 construct: Natural CD9 on tumor cell lines, primary cells and platelets, or in their lysates (Western blot, immunoprecipitation); also called MRP-1; MIC3
T5 sequence: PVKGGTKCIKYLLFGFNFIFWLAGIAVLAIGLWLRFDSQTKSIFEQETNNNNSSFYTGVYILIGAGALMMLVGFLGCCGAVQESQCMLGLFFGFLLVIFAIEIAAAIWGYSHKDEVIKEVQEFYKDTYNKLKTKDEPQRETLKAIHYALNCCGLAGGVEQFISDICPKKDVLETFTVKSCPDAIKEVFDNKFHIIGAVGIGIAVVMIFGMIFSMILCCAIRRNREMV

[3] = target: T4, CD9-3×FLAG-rabbitFc-Sortase-biotin; experiment: SPR on CD9-3xFLAG-rabbitFc-Sortase-biotin spots, CHO production supernatant; unit from the legend paragraph 219
[4] = target: T4, CD9-3×FLAG-rabbitFc-Sortase-biotin; experiment: SPR on CD9-3xFLAG-rabbitFc-Sortase-biotin spots, CHO production supernatant; unit and power of ten from the legend paragraph 219
[5] = target: T4, CD9-3×FLAG-rabbitFc-Sortase-biotin; experiment: SPR (IBIS), B cell supernatant on the CD9 spot; unit inferred

B1: antibody AT14-012 (antibody, V domains shown)
VH: EVQVVESGGGLVQPGRSLRLSCAASGFTFDDYAMHWVRQAPGKGLEWVSGISWNSGSIVYADSVKGRFTISRDNAKNSLYLQLNSLRAEDTAFYYCAKAVSGYYPYFDYWGQGILVTVSS
VL: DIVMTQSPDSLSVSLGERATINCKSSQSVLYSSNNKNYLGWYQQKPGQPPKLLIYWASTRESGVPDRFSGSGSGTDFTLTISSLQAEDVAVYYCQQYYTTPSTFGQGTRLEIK
notes: also called AT1412; WT AT14-012
binding result [1]: no binding | binding result (mouse CD9 on platelets): no binding

B2: AT14-012 recombinant antibody engineered as an IgG1 (antibody, V domains shown)
VH: EVQVVESGGGLVQPGRSLRLSCAASGFTFDDYAMHWVRQAPGKGLEWVSGISWNSGSIVYADSVKGRFTISRDNAKNSLYLQLNSLRAEDTAFYYCAKAVSGYYPYFDYWGQGILVTVSS
VL: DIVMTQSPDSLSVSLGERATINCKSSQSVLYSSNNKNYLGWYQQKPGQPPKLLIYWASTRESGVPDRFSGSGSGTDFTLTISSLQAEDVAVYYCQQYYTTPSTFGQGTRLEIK
modifications: Some experiments used Alexa647 or biotin labelled antibody, or a sortase-tagged (ST) heavy chain. None of this is carried in the letters.
notes: May be the same molecule as m1 if m1 stands for the IgG1 form; also called AT14-012 IgG1
binding result (surface CD81): no binding

B3: AT14-012 single mutant H40Y (antibody, V domains shown)
VH: EVQVVESGGGLVQPGRSLRLSCAASGFTFDDYAMYWVRQAPGKGLEWVSGISWNSGSIVYADSVKGRFTISRDNAKNSLYLQLNSLRAEDTAFYYCAKAVSGYYPYFDYWGQGILVTVSS
VL: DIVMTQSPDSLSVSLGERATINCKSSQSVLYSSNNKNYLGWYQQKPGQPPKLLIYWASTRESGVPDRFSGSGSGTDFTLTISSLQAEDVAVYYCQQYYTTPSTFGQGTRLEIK
fold enhancement of affinity against WT AT14-012 [2]: 100 times | binding result (human CD9): binds | Kd [3]: 0.543 nM | koff [4]: 0.000202 s⁻¹ | kon [4]: 372000 M⁻¹ s⁻¹

B4: 2H15 B cell subclone 10D1 (antibody, V domains shown)
VH: EVQVVESGGGLVQPGRSLRLSCAASGFTFDDYAMYWVRQAPGKGLEWVSGISWNSGSIVYADSVKGRFTISRDNAKNSLYLQLNSLRAEDTAFYYCAKAVSGYYPYFDYWGQGILVTVSS
VL: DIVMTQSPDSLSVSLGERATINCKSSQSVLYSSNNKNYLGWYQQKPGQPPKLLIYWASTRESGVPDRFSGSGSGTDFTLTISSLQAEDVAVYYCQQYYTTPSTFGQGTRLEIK
notes: group 1; B cell supernatant
Kd [5]: 3.9 nM

B5: AT14-012 double mutant H40Y/Y112F (antibody, V domains shown)
VH: EVQVVESGGGLVQPGRSLRLSCAASGFTFDDYAMYWVRQAPGKGLEWVSGISWNSGSIVYADSVKGRFTISRDNAKNSLYLQLNSLRAEDTAFYYCAKAVSGYFPYFDYWGQGILVTVSS
VL: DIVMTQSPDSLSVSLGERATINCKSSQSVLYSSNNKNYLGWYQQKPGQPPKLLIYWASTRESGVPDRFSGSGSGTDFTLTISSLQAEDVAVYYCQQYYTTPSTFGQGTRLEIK
notes: also called double group 1 mutant; combination group 1 mutant
Kd [2]: ~0.22 nM | fold enhancement of affinity against WT AT14-012 [2]: 250 times | binding result (human CD9): binds | Kd [3]: 0.219 nM | koff [4]: 3.69e-05 s⁻¹ | kon [4]: 164000 M⁻¹ s⁻¹

B6: 2H15 B cell subclone 1F5 (antibody, V domains shown)
VH: EVQVVESGGGLVQPGRSLRLSCAASGFTFDDYAMHWVRQAPGKGLEWVSGISWNSGSIVYADSVKGRFTISRDNAKNSLYLQLNSLRAEDTAFYYCAKAVSGYFPYFDYWGQGILVTVSS
VL: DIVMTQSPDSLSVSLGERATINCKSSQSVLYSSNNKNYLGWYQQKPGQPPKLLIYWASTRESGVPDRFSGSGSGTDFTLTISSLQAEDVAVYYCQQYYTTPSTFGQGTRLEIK
notes: group 1; B cell supernatant
Kd [5]: 3.8 nM

B7: AT14-012 single mutant Y112F (antibody, V domains shown)
VH: EVQVVESGGGLVQPGRSLRLSCAASGFTFDDYAMHWVRQAPGKGLEWVSGISWNSGSIVYADSVKGRFTISRDNAKNSLYLQLNSLRAEDTAFYYCAKAVSGYFPYFDYWGQGILVTVSS
VL: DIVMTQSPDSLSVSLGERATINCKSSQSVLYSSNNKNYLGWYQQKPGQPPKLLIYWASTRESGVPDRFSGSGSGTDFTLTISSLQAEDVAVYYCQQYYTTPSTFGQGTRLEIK
fold enhancement of affinity against WT AT14-012 [2]: 50 times | binding result (human CD9): binds | Kd [3]: 1.09 nM | koff [4]: 0.000203 s⁻¹ | kon [4]: 185000 M⁻¹ s⁻¹

B8: AT14-012 single mutant T29N (antibody, V domains shown)
VH: EVQVVESGGGLVQPGRSLRLSCAASGFNFDDYAMHWVRQAPGKGLEWVSGISWNSGSIVYADSVKGRFTISRDNAKNSLYLQLNSLRAEDTAFYYCAKAVSGYYPYFDYWGQGILVTVSS
VL: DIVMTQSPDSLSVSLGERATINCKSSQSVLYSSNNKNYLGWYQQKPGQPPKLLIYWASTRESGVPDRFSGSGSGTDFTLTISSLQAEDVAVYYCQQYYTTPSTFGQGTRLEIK
binding result (human CD9): binds | Kd [3]: 50.1 nM | koff [4]: 0.00126 s⁻¹ | kon [4]: 25900 M⁻¹ s⁻¹

B9: AT14-012 quadruple mutant H40Y/Y112F/D116H/T29N (antibody, V domains shown)
VH: EVQVVESGGGLVQPGRSLRLSCAASGFNFDDYAMYWVRQAPGKGLEWVSGISWNSGSIVYADSVKGRFTISRDNAKNSLYLQLNSLRAEDTAFYYCAKAVSGYFPYFHYWGQGILVTVSS
VL: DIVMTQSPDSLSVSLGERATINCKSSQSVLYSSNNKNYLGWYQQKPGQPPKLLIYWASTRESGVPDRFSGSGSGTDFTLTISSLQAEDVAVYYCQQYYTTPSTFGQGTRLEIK
notes: also called quadruple variant
Kd [2]: ~0.455 nM | fold lower affinity against the group 1 double mutant (H40Y/Y112F) [2]: 2 times | binding result (human CD9): binds | Kd [3]: 0.455 nM | koff [4]: 6.92e-05 s⁻¹ | kon [4]: 153000 M⁻¹ s⁻¹

B10: AT14-012 double mutant D116H/T29N (antibody, V domains shown)
VH: EVQVVESGGGLVQPGRSLRLSCAASGFNFDDYAMHWVRQAPGKGLEWVSGISWNSGSIVYADSVKGRFTISRDNAKNSLYLQLNSLRAEDTAFYYCAKAVSGYYPYFHYWGQGILVTVSS
VL: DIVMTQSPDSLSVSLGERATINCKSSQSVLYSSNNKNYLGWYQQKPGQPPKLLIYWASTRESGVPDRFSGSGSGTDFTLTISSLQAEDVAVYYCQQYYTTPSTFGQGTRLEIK
notes: also called combination of the two group 2 mutations
binding result (human CD9): binds | Kd [3]: 4.19 nM | koff [4]: 0.00297 s⁻¹ | kon [4]: 708000 M⁻¹ s⁻¹

B11: AT14-012 single mutant D116H (antibody, V domains shown)
VH: EVQVVESGGGLVQPGRSLRLSCAASGFTFDDYAMHWVRQAPGKGLEWVSGISWNSGSIVYADSVKGRFTISRDNAKNSLYLQLNSLRAEDTAFYYCAKAVSGYYPYFHYWGQGILVTVSS
VL: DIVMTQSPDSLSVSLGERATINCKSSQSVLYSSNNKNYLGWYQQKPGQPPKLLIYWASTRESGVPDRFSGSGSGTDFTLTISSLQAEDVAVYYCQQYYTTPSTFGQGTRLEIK
fold enhancement of affinity against WT AT14-012 [2]: 10 times | binding result (human CD9): binds | Kd [3]: 4.62 nM | koff [4]: 0.00217 s⁻¹ | kon [4]: 470000 M⁻¹ s⁻¹

B12: 2H15 B cell subclone 4D4 (antibody, IgG3, V domains shown)
VH: EVQVVESGGGLVQPGRSLRLSCAASGFTFDDYAMHWVRQAPGKGLEWVSGISWNSGSIVYADSVKGRFTISRDNAKNSLYLQLNSLRAEDTAFYYCAKAVSGYYPYFDYWGQGILVTVSS
VL: DIVMTQSPDSLSVSLGERATINCKSSQSVLYSSNNKNYLGWYQQKPGQPPKLLIYWASIRESGVPDRFSGSGSGTDFTLTISSPQAEDVAVYYCQQYYTTPSTFGQGTRLEIK
notes: group 2; B cell supernatant, IgG3
Kd [5]: 15.9 nM

B13: 2H15 B cell subclone 2D12 (antibody, V domains shown)
VH: EVQVVESGGGLVQPGRSLRLSCAASGFTFDDYAMHWVRQAPGKGLEWVSGISWNSGSIVYADSVKGRFTISRDNAKNSLYLQLNSLRAEDTAFYYCAKAVSGYYPYFHYWGQGILVTVSS
VL: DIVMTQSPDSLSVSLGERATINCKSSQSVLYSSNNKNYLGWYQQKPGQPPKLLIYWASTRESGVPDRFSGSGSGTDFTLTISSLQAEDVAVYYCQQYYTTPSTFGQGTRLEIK
notes: group 2; B cell supernatant
Kd [5]: 5.2 nM

B14: 2H15 B cell subclone 4H10 (antibody, V domains shown)
VH: EVQVVESGGGLVQPGRSLRLSCAASGFTFDDYAMYWVRQAPGKGLEWVSGISWNSGSIVYADSVKGRFTISRDNAKNSLYLQLNSLRAEDTAFYYCAKAVSGYYPYFDYWGQGILVTVSS
VL: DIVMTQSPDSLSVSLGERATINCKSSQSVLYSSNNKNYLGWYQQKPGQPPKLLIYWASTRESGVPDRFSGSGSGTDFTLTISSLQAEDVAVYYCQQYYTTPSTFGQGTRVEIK
notes: group 1; B cell supernatant
Kd [5]: 6.1 nM

B15: 2H15 B cell subclone 1D5 (antibody, V domains shown)
VH: EVQVVESGGGLVQPGRSLRLSCAASGFTFDDYAMYWVRQAPGKGLEWVSGISWNSGSIVYADSVKGRFTISRDNAKNSLYLQLNSLRAEDTAFYYCAKAVSGYYPYFDYWGQGILVTVSS
VL: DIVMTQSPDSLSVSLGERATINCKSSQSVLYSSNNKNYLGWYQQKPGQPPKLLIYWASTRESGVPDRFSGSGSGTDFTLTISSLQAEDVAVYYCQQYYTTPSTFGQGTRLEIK
notes: group 1; B cell supernatant
Kd [5]: 2.3 nM
